Test results as given in article PMC6204036, “Myostatin and activin blockade by engineered follistatin results in hypertrophy and improves dystrophic pathology in mdx mouse more than myostatin blockade alone” (Skeletal Muscle, 2018).

Target: T1, FS-EEE-mFc (human, UniProt P19883 30-344, K76 mutagenized to glutamic acid | K81 mutagenized to glutamic acid | K82 …)
T1 construct: follistatin FS315, human, with K76, K81 and K82 changed to glutamic acid; FS315 cDNA (Clontech) cloned in frame to murine IgG1 Fc cDNA; also called engineered follistatin; FST-EEE-mFc
T1 sequence (P19883 other isoform, or with tags, fused parts or gaps with the stated changes): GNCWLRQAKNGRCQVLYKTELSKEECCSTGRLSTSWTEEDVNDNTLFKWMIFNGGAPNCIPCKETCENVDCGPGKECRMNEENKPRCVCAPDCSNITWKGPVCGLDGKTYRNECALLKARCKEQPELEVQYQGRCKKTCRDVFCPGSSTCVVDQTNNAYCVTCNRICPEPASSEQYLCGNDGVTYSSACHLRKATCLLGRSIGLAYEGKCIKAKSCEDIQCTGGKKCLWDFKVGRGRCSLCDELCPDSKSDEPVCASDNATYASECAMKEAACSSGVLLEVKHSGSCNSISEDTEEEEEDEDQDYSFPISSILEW
Assay: SPR; surface plasmon resonance method as in ref. 48; which partner was immobilised and the conditions are not told
Details: both partners purified

B1: activin A (ligand, UniProt P08476 311-426, looked up)
chain: GLECDGKVNICCKKQFFVSFKDIGWNDWIIAPSGYHANYCEGECPSHIAGTSGSSLSFHSTVINHYRMRGHSPFANLKSCCVPTKLRPMSMLYYDDGQNIIKKDIQNMIVEECGCS
notes: activin A (inhibin beta A chain), the ligand used in SPR
- Kd: 6.1 pM
